Data set [1] concerns the target T1, GST-UP1 (hnRNP A1 proteolytic fragment UP1) (UniProt P49312 P49312:1-196). The experiment in a line: pulldown; glutathione Sepharose beads, washes at 165 mM NaCl; highest recovery; plain beads less than 10% of bound. Particulars: tags: N-terminal GST fusion (inferred); label: 32P. As for the experimental part: (§1) Following 5×1 ml washes in buffer containing 165 mM NaCl, the recovery of the labelled oligos was measured. The (TTAGGG)₃ oligonucleotide was recovered with the highest yield. A control experiment with plain beads yielded less that 10% of bound (TTAGGG)₃ oligonucleotide. A labelled DNA oligonucleotide containing the complementary sequence (CCCTAA)₃ was recovered at background level. […] UP1 associated directly with telomeric repeats carrying the TTAGGG sequence. Gel-shift assays performed with mutated oligonucleotides indicate that UP1 binds specifically to (TTAGGG)₃ oligonucleotide.
(§2) ³²P-labelled DNA oligonucleotides were mixed with Glutathione Sepharose 4B beads containing or lacking the GST-UP1 fusion protein. Following 5×1 ml washes in buffer containing 165 mM NaCl, the recovery of the labelled oligos was measured. The (TTAGGG)₃ oligonucleotide was recovered with the highest yield. A control experiment with plain beads yielded less that 10% of bound (TTAGGG)₃ oligonucleotide. A labelled DNA oligonucleotide containing the complementary sequence (CCCTAA)₃ was recovered at background level. […] Thus, UP1 can associate directly with telomeric repeats carrying the TTAGGG sequence. Furthermore, gel-shift assays performed with mutated oligonucleotides indicate that UP1 binds specifically to (TTAGGG)₃ oligonucleotide. […] It remains to be shown whether UP1 associates with telomeric repeats in vivo.

In data set [2] the target is T1, GST-UP1 (hnRNP A1 proteolytic fragment …). Briefly: pulldown; background level recovery; 165 mM NaCl washes; also tested by gel shift (FIG. 3 lane 9). Particulars: tags: N-terminal GST fusion (inferred); label: 32P. As for the experimental part: as §1, §2

T1 sequence (P49312 1-196, one chain of several): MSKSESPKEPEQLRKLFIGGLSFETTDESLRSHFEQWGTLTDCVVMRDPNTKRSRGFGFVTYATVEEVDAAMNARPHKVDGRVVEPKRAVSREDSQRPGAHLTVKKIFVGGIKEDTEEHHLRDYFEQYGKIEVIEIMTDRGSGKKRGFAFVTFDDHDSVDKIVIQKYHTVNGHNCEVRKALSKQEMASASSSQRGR

Regarding TTAGGGTTAGGGTTAGGG (ssDNA) [vertebrate telomeric (TTAGGG)3], the binding result in data set [1] is reported as “binds”. Take CCCTAACCCTAACCCTAA (ssDNA) [complementary C-strand (CCCTAA)3]: in data set [2], the binding result is listed as “no binding”.
